Source: patent US20090149381

target: human recombinant PEDF (pigment epithelium-derived factor) (UniProt P36955)
Sequence (P36955 20-418): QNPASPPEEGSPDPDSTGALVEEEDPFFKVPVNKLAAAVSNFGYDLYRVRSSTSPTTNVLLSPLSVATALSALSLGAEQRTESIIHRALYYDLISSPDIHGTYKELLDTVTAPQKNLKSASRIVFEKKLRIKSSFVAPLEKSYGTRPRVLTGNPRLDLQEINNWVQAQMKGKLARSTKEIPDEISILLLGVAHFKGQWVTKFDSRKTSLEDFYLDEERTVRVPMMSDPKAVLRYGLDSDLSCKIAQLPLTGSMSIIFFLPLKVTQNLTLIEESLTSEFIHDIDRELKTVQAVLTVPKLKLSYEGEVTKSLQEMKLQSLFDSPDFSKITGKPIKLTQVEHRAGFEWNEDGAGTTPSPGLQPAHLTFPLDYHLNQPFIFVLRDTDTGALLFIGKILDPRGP

human recombinant MMP-9, sequence (chain, as listed by the source): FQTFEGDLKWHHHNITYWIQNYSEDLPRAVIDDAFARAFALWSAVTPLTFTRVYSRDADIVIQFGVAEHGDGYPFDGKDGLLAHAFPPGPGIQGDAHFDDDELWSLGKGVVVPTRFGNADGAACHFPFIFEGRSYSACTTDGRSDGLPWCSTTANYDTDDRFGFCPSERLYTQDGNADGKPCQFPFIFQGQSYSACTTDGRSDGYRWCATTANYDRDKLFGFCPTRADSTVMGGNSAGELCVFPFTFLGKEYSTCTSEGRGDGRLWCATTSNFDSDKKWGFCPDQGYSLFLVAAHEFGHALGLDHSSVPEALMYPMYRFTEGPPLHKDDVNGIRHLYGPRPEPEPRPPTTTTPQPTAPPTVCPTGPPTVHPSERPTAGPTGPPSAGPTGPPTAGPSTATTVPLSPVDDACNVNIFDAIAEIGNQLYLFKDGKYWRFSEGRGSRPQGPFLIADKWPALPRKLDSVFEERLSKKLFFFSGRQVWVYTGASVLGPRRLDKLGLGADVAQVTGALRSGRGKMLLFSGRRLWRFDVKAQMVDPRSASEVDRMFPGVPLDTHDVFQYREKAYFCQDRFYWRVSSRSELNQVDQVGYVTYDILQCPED

| Substance | PEDF fragments observed by SDS-PAGE after protease treatment |
| --- | --- |
| activated MMP-2 | resulted in the generation of multiple PEDF fragments that were observed by SDS-PAGE. These fragments had estimated relative molecular weights of 44 and 42 KDa |
| MMP-7 | resulted in the generation of multiple PEDF fragments that were observed by SDS-PAGE. These fragments had estimated relative molecular weights of 44 and 42 KDa |
| human recombinant MMP-9 | resulted in the generation of multiple PEDF fragments that were observed by SDS-PAGE. These fragments had estimated relative molecular weights of 44 and 42 KDa |
